According to PMC12263834, “Structural basis of Fanconi anemia pathway activation by FANCM”:
Blank lines part the entries; values can stand above or below the molecule they belong to.

Tests used:
[1] = biological target: FANCA (FA core complex component, in cells) [human (endogenous in HCT116 or HEK293 cells)]; assay: co-immunoprecipitation (quantified Western blot); conditions: cell-based; n = 3 independent co-immunoprecipitation experiments; parent: 100; read off a plot
[2] = biological target: FANCE (FA core complex component, in cells) [human (endogenous in HCT116 or HEK293 cells)]; assay: co-immunoprecipitation (quantified Western blot); conditions: cell-based; n = 3 independent co-immunoprecipitation experiments; parent: 100; read off a plot
[3] = biological target: T1, FANCM translocase domain (8HIS-FANCM 73-644) (human, UniProt Q8IYD8 73-644); assay: crystal structure (2.2 A); 5 mM MgCl2 in protein buffer; Fluorescence anisotropy: 25 mM Tris-HCl pH 8, 20 mM NaCl, 2 mM MnCl2, 0.1 mg/ml BSA, temperature not stated; crystals N-terminal domain: 0.2 M NaCl, 0.1 M HEPES pH 7.0, 32.5% PEG 400, room temperature; CTD: 25% PEG3350, 0.1 M diammonium hydrogen phosphate; conditions: protein: recombinant; tags: 8xHis N-terminal; hairpin, 14 bp stem, TTAG loop, 11 nt 3' flap
T1 sequence: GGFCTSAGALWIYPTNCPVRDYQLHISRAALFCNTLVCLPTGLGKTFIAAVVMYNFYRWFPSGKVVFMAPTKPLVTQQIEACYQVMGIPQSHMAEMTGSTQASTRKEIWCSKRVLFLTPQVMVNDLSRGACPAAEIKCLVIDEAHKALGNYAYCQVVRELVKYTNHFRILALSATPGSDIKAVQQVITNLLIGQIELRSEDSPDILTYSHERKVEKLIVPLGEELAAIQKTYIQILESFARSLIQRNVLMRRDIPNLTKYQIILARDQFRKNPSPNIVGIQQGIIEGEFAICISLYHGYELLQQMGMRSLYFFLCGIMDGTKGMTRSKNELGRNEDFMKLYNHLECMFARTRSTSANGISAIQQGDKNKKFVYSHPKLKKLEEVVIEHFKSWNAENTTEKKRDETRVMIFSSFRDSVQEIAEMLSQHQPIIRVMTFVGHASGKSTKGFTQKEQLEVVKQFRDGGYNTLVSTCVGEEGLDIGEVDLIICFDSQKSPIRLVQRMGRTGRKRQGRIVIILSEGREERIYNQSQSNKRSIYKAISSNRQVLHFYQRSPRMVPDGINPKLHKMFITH

FANCM-CTD;FAAP24 = biological target: T2, FANCM-CTD;FAAP24 (human?;human?, UniProt Q8IYD8;Q9BTP7 1799-2048;1-215, |); assay: crystal structure (2.4 A); Mg2+ site in FAAP24; duplex contacted, splayed arms disordered; Fluorescence anisotropy: 25 mM Tris-HCl pH 8, 20 mM NaCl, 2 mM MnCl2, 0.1 mg/ml BSA, temperature not stated; crystals N-terminal domain: 0.2 M NaCl, 0.1 M HEPES pH 7.0, 32.5% PEG 400, room temperature; CTD: 25% PEG3350, 0.1 M diammonium hydrogen phosphate; conditions: protein: recombinant;recombinant; tags: GST (PreScission cleaved);HIS; copies: 1;1; 17 bp duplex with splayed arms: 3' TTTT on SA1 and 5' TTTT on SA2 at the same end
T2 sequence 1: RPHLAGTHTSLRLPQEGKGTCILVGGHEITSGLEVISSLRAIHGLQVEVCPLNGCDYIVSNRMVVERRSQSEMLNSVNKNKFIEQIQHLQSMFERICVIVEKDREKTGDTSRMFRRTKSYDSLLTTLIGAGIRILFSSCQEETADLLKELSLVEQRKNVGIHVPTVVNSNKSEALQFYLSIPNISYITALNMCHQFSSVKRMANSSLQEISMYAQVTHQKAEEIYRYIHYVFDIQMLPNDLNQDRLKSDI
T2 sequence 2: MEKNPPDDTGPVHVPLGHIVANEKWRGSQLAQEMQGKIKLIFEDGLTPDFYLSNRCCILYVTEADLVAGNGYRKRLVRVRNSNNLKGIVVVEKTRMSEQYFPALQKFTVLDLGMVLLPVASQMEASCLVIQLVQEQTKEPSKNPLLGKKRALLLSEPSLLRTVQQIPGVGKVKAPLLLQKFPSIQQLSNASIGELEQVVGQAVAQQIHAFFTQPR

Molecule: Flag-FANCM-wildtype (expressed in cells) mutant P999L [human] / FANCA (FA core complex component, in cells) [human (endogenous in HCT116 or HEK293 cells)] chain 1 P999L
percent of parent (% of wild-type FANCM) [1]: 14

Molecule: GGTATGAGCACTGCTTAGGCAGTGCTCATACCGCATGGAGCTG (structured_DNA) [Hairpin15 (3' flap hairpin)]
binding result [3]: binds

B1: SA1/SA2 splayed duplex (dsDNA)
DNA 1: TACGCATCATCGCTCGGTTTT
DNA 2: TTTTCCGAGCGATGATGCGTA
binding result (FANCM-CTD;FAAP24): binds

Second part, the molecule after the results:

percent of parent (% of wild-type FANCM) [2]: 10
Molecule: Flag-FANCM-wildtype (expressed in cells) mutant P999L [human] / FANCE (FA core complex component, in cells) [human (endogenous in HCT116 or HEK293 cells)] chain 1 P999L

percent of parent (% of wild-type FANCM) [1]: 40
Molecule: Flag-FANCM-wildtype (expressed in cells) mutant V990A [human] / FANCA (FA core complex component, in cells) [human (endogenous in HCT116 or HEK293 cells)] chain 1 V990A

percent of parent (% of wild-type FANCM) [2]: 27
Molecule: Flag-FANCM-wildtype (expressed in cells) mutant V990A [human] / FANCE (FA core complex component, in cells) [human (endogenous in HCT116 or HEK293 cells)] chain 1 V990A
